Data published in the DeepSol protein solubility set.

Test: soluble on expression in E. coli; label from the status in PepcDB or PDB records

Soluble on expression in E. coli, not soluble:
MGSDKIHHHHHHMTTPFKRIHLIVMDSVGIGEGPDAAAFNDEGSHTLKHTLEGFKQKLPHLEQLGLGNIAPLPVVSKVTHPGAFYTKLSEASVGKDTMTGHWEIMGLNIMQPFKVYPNGFPAELVKEIESMTGRKVVANRPASGTQIIDEWGEHQMKTGDLIVYTSADPVLQIAAHEDVIPLEELYEICEKVRELTKDPKYLIGRIIARPYVGEPGNFTRTSNRHDYALKPFGRTVMNSLKDSGYDVIAIGKINDIYDGEGVTEAIRTKNNMDGMDQLIEVVKKDFEGISFLNLVDFDALYGHRRDKEGYAQAIKDFDLRLPELMNHLREDDLVIITADHGNDPIAKGTDHTREYIPLLMFSPKIKDYHELSQDTTFSSIGVTIADNFNVELPKYGKSYLKEMGVEHQ
MGSDKIHHHHHHMTTRILICDDSALARKQMAKALPPGLADDILFAGDGKEALTILRDQKAELLFLDLNMPELDGYQVLEHIRSEDLPVLTIVVSGDIQPEARERVRKLGAIDFIKKPTDTGVVSRLLKEYGFYRPSELEDTALNDASLHSREAAAPEISVSLSDYLQEISNVAMGRSSDLLARLLKVFVKQPIPKVAFIANSELHMAISAAQRAENYSAVCQGFTGAGIAGEALLLFEDASFREMAELLHYDVLEGESVNVEVLMDMSSILFGAFINGIGDQLDLKLGLGHPTVLGQHRPVNELLDHHSKREEQLLCIEISYALENRDIRCNMLILLTEDSIPFLEKRLAYLVD
MGSDKIHHHHHHMTTSAVSIPMPSIPRRRRSPEDVLAAAPVPGPKKVLLAAPRGYCAGVDRAVIAVEKALEHYGPPVYVRKQIVHNVHVVSSLEEKGAIFVDETDEVPEGALVIFSAHGVSPAVVQSAEDRGLRTIDATCPLVTKVHREAVRFAKDDFDILLIGHDGHEEVEGTAGEAPEHIQIINGPHEVDKVTVRDPEKVIWLSQTTLSVDETMETVRLLKERFPTLQDPPSDDICYATTNRQVAIKKISPQADLVIVVGSANSSNSVRLVEVALEYGAKASYRVDFANEVDEAWFEGVATVGVTSGASVPEVLVKDVLRLLADYGYGTVEEVVTAEEDLLFSLPKELRATLKKSGDVTRALGGRGARA
MGSDKIHHHHHHMTTSTNERTTRAELQDAPRVARLHPQPDYRISVGGRDLSRLFAPRLVSLSISESRSDEADTIDIVLDDSKNDLDIPKRGATIKASIGWAGEPLVDKGSFVVNEVEHSGAPDIITIRARSAAMTSGMQERREKSWHRQTIGSIVHAIAGRYSLSPTVGDALAKILIAHIDQTHESDMSFLTRLAKRYDAVMNVKDLRLLFMPIGTGQTATGKKLDVLELTRASGDSHRYHVSERENYAAVRAHYHSTGRAKRKSVIVGGENNKNVKVLPEDYATEAEARAAAQAEFKRMQRSQATMSYTLARGRAELFPEMPVTVSGFKPEIDETPWLVKKATHTIGDVGFTTALELEMRDDPTTERHRSHFQGSR
MGSDKIHHHHHHMTVAIDRTKGDQSTPGNIIRGEGYALIRNSEATPDPDKVIHIPCADSFSVIVQLRDFNSHRLWNGNKLVFDGGHPRKSISIAYLGDEIKCQHRTTYDNVRFMLPRASIKEFLYEEGQRASAEPERIIGVDDPVVYHLALALLPSFARAGERNELFIEQVMLALLTHVQDRFASTQVPVCTGKGLAPWQLRRAKELIAGHLAEGVSVARLAEECGLSRSYFTKAFKCSTGVSPHEWLMRMRVDRAKELMLGSDEPLSQIGVACGFSDQPHFSRIFLRLAGASPSTWRRVKRQRTDAAL
MGSDKIHHHHHHMTVCVWCQRPLKTSLTLAQFWRWGPVTPPDICVPCQGRLSPISGQHCPQCGRQQTTCQLCQDCQRWDQPLVNRALYCYDAEMKAYMQQYKFQGDYALQRVLQRALATALTQLTYDILVPIPIAQSTWQSRGFNQVTGWLTGQAYYQVLQVIDQDKATPQSAKNRAQRFLLTPQPFTLAPQAKDLCHGQRVLLLDDVYTTGRTLRHAATQINLTGAKAVTSLTLAR
MGSDKIHHHHHHMTVQSSDVIAPPAPRTLPDTGLSLVMLRDILLKTMFRMNLELVSQIAPVICLPAPLAQELVDLARSQRLVEATGTLHATSGNEMGYQLTDQGKARALDALSQSEYYGAMPVPLDRYRLQVERQSVRHIKLTRAQLTAAMGHLILPDELLDHLGPAVTSGRSILMYGPPGNGKSSISNGIRDALGDRIYVPRALEYSGQVITVYDPIVHRSAESAVDDPTSLRRTSNRFDNRYVWCERPTVITGGELTLDMLDLTYNPVARTYQAPLQLKATGGIFIVDDLGRQAEPPQKLVNRWIVPLEENRDILALQSGEKFTVPFDTLVIFSTNFHPNEIFDGAALRRIFFKIKVDGPSQENFLKIFAMVAKKRKMPLDETALVHLMKAKFPTIDNRYANYMPVYLIDQMISVCDFEGLPYQMTPALIDRAWSNMFVRDEVIAK
MGSDKIHHHHHHMVAIDLPYDKRTITAQIDDENYAGKLVSQAATYHNKLSEQETVEKSLDNPIGSDKLEELARGKHNIVIISSDHTRPVPSHIITPILLRRLRSVAPDARIRILVATGFHRPSTHEELVNKYGEDIVNNEEIVMHVSTDDSSMVKIGQLPSGGDCIINKVAAEADLLISEGFIESHFFAGFSGGRKSVLPGIASYKTIMANHSGEFINSPKARTGNLMHNSIHKDMVYAARTAKLAFIINVVLDEDKKIIGSFAGDMEAAHKVGCDFVKELSSVPAIDCDIAISTNGGYPLDQNIYQAVKGMTAAEATNKEGGTIIMVAGARDGHGGEGFYHNLADVDDPKEFLDQAINTPRLKTIPDQWTAQIFARILVHHHVIFVSDLVDPDLITNMHMELAKTLDEAMEKAYAREGQAAKVTVIPDGLGVIVK
MGSDKIHHHHHHMVDFKEQQQRYWQLLHQPESLFLLHRANDVEHFIALMTDFLAWPELSLEHMLAFIALQQDSFIPDLDRFSQAWFPCRYHSQHKTVSWVPALHKLSKPFLEDDISDARRCLLASFIQPSTLLEPLLSQRESLPIVNPSLMIFHWSRCGSTLVSSSFALLETCRVLSESMLCSDVMHDDHWPLALKPQLVDLCLRLQGRLRLGERKLVIKWNAWDLACWPMLLELYPKSRVLCLIRNPKDIIDSHQRVAGRHMAGGQSLLPTELQTQQMENTDTEPSLDEFRTTVLQYLAQLSLALHQSSRVILLDYHQLTDFKPTTFSTILGWALSEGEIERWQHHWRFDAKQQGQLFTPVVPNEPVPIRECQNPSWQQLLITYNQLLQRLYWDKKA
MGSDKIHHHHHHMVDTNHKIAFCIDSDGCAMDTMTYKHQLFFGPIAADIFGISEQERTSFLKEWDRVNLYSRTRGVNRFVGLVMGLEFAGVEHIDKLKEWVETTDSLSNNSLELALANDFSRDLEKALEWSNEVNRQIKNYEGDSLAFSGVLESLERLSQFGNVYVVSSANKEAVWQEWEEQGLLKYVDDIYCQDRGKKEDVIATLIASGYCRETILMVGDSLGDLAAAEQNGIAFYPVLVGKEVKSWEILREDIGEAFAKGQFEQQRQKESINTFWANLDN
MGSDKIHHHHHHMVENYNFSGVPMRLDDLTYMNPWWEGREDYHVRRWKEQRLHWKPGWLEKLSLKPFSLNFVLGPRQVGKTTGIKLLIQELLKDNPPESILYINVKVLPGHRELLNLLREFQELKEKEGVKTGYIFLDEVTSLEGWWRGVKPLIDAGLLKNDVVTVTGSSSLGVRRDIELFPGRRGSGKTIEVMPLSFPEYVEVMGLKKPELYREKVLKLFEDYLTTGGFPTSINGLPMEDLLGAYIGEIVRFGKSLEIAKETLSALIRSAPSATSFRALAGITSGYSYKVVQDYIELFTELYVLGIAYLKQGNQVLYKREKKFFFRDPLLARLFALWSGTELKEDALYEWVVQEHLYRRFGEVYYYRNSYEIDAIAGDLKVEVKAGKTHRRYPKNVRVLEKEDVPFFLLELTHESTSRF
MGSDKIHHHHHHMVLLDYHMHSLNSTDAHDEISALCAKAIARGLQEIAVTDHFEPSAGHEEYSEYDGRKYFTEIAEARRRFAGKLSIKSGVELGQPHLFPKYSLQLLEEYPYDYVLGSAHRMPNNVDFGEVRYTPENLAAYCASYLTELKALAQWGHYDCLGHLDLVKRYAAKYRLRANLMDYQEQLAEILRIVIDKGKGIEVNTSGLRQSSQECLPDLDIIRLYKELGGEIITVGSDAHWAEDVGKGIQEGLERLKKAGFKYVSVYTNRQPAMIKIGDKSALFTRGGLSA
